Assay [1] has as its target T1, extracellular domain of human PD-L2 (R&D Systems, 1224-PL) (human, UniProt Q9BQ51 20-220).
T1 construct: extracellular domain; Bought
T1 sequence (looked up): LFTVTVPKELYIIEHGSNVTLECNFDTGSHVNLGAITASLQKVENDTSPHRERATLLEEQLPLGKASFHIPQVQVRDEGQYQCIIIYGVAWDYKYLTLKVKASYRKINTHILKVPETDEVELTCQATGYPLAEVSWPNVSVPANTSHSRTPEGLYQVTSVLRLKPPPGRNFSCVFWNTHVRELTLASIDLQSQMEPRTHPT
The assay can be described thus: ELISA, biotinylated IgG1-TM on coated ECD. On the procedure: (§1) ELISAs were performed to determine the cross-reactivity of the anti-B7-H1 IgG1-TM antibodies for other immune co-modulatory molecules. […] Murine cross reactivity was also investigated by coating the ECD of murine B7-H1 (R&D Systems, 1019-B7). Biotinylated anti-B7-H1 IgG1-TM diluted at 100 nM in PBS containing 3% dried milk powder, were incubated at room temperature for 2 h to allow binding. Bound biotinylated IgGs were detected with europium N1-labelled streptavidin (Perkin Elmer, 1244-360) at 0.2 ug/mL. […] Primary antibodies were incubated at 5 ug/mL in PBS containing 3% dried milk powder for 2 h at room temperature. Detection was carried out by incubating the secondary antibody anti-mouse IgG Peroxidase conjugate (Sigma, A2554) or anti-rat IgG Peroxidase conjugate (Sigma, A5795) diluted 1:5000 in PBS containing 3% dried milk powder for 1 h at room temperature and subsequent addition of TMB (Sigma, T0440). […] Non-specific binding was determined using wells coated with the IgG1 isotype control at 5 ug/mL. Cross reactivities were calculated at a percent of the specific binding to the antigen relative to human B7-H1.

For assay [2], the target named is T2, extracellular domain of human CD28 (R&D Systems, 342-CD) (human, UniProt P10747 19-152).
T2 construct: extracellular domain; Bought
T2 sequence (P10747 19-152): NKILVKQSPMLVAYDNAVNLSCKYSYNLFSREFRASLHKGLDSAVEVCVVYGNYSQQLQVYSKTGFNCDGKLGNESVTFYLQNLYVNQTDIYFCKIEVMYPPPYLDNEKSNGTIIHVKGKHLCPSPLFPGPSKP
The assay can be described thus: ELISA, biotinylated IgG1-TM on coated ECD. On the procedure:
as §1
On the technique in general: In an ELISA, binding on a coated surface is turned into a signal by an enzyme label.

The target of assay [3] is T3, human PD-1/Fc protein (R&D Systems, catalog #1086-PD) (human, UniProt Q15116 25-170).
T3 construct: extracellular domain; Bought; not shown: Fc portion
T3 sequence (Q15116 25-170): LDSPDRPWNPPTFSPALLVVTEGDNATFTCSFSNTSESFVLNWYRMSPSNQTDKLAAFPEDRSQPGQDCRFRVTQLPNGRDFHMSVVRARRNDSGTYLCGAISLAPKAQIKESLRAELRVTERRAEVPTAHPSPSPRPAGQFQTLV
The assay can be described thus: ELISA, biotinylated IgG1-TM on coated ECD. On the procedure:
as §1

The target of assay [4] is T4, extracellular domain of human B7-H2 (R&D Systems, 165-B7) (human, UniProt O75144 19-256).
T4 construct: extracellular domain; Bought
T4 sequence (looked up): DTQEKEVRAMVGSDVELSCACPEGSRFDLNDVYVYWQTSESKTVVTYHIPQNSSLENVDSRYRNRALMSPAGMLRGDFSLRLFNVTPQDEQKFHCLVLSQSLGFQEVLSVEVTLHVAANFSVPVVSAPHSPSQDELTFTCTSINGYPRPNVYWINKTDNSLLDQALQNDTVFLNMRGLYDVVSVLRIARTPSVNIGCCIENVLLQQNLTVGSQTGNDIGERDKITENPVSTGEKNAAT
The assay can be described thus: ELISA, biotinylated IgG1-TM on coated ECD. On the procedure:
as §1

The target of assay [5] is T5, extracellular domain of human CTLA-4 (R&D Systems, 325-CT) (human, UniProt P16410 36-161).
T5 construct: extracellular domain; Bought
T5 sequence (looked up): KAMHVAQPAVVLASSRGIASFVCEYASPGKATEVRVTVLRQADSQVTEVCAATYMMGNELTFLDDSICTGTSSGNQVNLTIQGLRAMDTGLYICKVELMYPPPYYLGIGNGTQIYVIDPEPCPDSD
In words: ELISA, biotinylated IgG1-TM on coated ECD. On the procedure:
as §1

The target of assay [6] is T6, extracellular domain of murine B7-H1 (R&D Systems, 1019-B7) (murine, UniProt Q9EP73 19-239).
T6 construct: extracellular domain; Bought
T6 sequence (Q9EP73 19-239): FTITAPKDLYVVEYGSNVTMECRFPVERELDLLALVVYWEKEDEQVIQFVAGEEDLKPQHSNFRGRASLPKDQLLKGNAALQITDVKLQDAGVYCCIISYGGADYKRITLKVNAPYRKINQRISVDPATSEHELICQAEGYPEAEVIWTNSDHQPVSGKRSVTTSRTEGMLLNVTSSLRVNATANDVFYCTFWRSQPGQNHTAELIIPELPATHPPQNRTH
In words: ELISA, biotinylated IgG1-TM on coated murine B7-H1 ECD. As for the experimental part: as §1

Assay [7] concerns the target T7, recombinant monomeric cynomologus B7-H1 FlagHis10 extracellular domain (cynomologus).
T7 construct: extracellular domain; also called CYNO B7H1
In words: SPR (BIAcore T100), IgG captured via protein G, monomeric cynomologus B7-H1 ECD as analyte, 25 °C, 1:1 model. As for the experimental part: The binding affinity and kinetic parameters of anti-B7-H1 antibodies in the IgG1-TM format to monomeric human and cynomologus B7-H1 were determined by surface plasmon resonance using a BIAcore T100 instrument (BIAcore, Uppsala, Sweden). In brief, experiments were performed at 25° C. using HBS-EP buffer (10 mM HEPES, 150 mM NaCl, 3 mM EDTA, 0.05% v/v surfactant P20) as running buffer. IgGs were affinity captured on the surface of a CM5 sensor chip (BIAcore) via protein G, which was amine coupled onto the CM5 surface to achieve the density of ˜500 Response Units (RU), according to the manufacturer's instructions (BIAapplications Handbook, BIAcore). Recombinant monomeric human or cynomologus B7-H1 FlagHis₁₀ extracellular domains (ECDs) were used as analytes. […] All measurements were baseline corrected by subtracting the sensorgram obtained with the control (activated-deactivated) flow cell, as well as double referenced with blank (zero analyte concentration) injections. Data were analyzed using the T-100 BIAevaluation software package and fitted to a simple 1:1 Langmuir binding model with local Rₘₐₓ and bulk refractive index set to 0. Data were calculated from at least two independent experiments. Mass transport effects were limited by keeping the level of affinity-captured IgGs below 250 RU.
A general note: In SPR one partner is held on a chip, and binding of the other changes the refractive index at the surface.

B1: 2.14H9OPT (antibody, V domains shown)
VH: EVQLVESGGGLVQPGGSLRLSCAASGFTFSRYWMSWVRQAPGKGLEWVANIKQDGSEKYYVDSVKGRFTISRDNAKNSLYLQMNSLRAEDTAVYYCAREGGWFGELAFDYWGQGTLVTVSS
VL: EIVLTQSPGTLSLSPGERATLSCRASQRVSSSYLAWYQQKPGQAPRLLIYDASSRATGIPDRFSGSGSGTDFTLTISRLEPEDFAVYYCQQYGSLPWTFGQGTKVEIK
notes: Germlined VL; human IgG1-TM (L234F, L235E, P331S), kappa
By Kd is commonly meant a measure of binding affinity in units of concentration. With B1, the binding result in assay [1], in assay [2], in assay [3], in assay [4], in assay [5] and in assay [6] was “no binding (tested: 100 nM)” each time. Also, the Kd in assay [7] was found to be 0.367 nM.

The values above are taken from patent US20130034559A1 (AstraZeneca / MedImmune, published 2013).
